Patent publication US6730503B1 (Roche Vitamins Inc., priority 1996, dated 2004)

Columns and labels:
[1] = Oxidation product of AADH clones by resting cell reaction followed by TLC analysis; format: cell-based, P. putida
Description: Enzyme A gene was originally cloned as a cosmid clone of p24D4 which has about 25 kb insert in EcoRI site of pVK100. Then, it was further subcloned to use as an Enzyme A gene cassette. The 2.7 kb EcoRV fragment which includes ORF of Enzyme A gene with about 500 bp of non-coding regions at the both ends was excised from 3.4 kb NruI fragment, which was isolated from p24D4 in M13 mp18, and was ligated to HindIII site of pUC18 with HindIII linker ([…]). The resulting plasmid was designated pSSA202. Enzyme A gene cassette (2.7 kb HindIII fragment) was then inserted at HindIII site of pVK102 to produce pSSA102R. The plasmid pSSA102R was introduced into nalidixic acid resistant P. putida [ATCC 21812] by a conjugal mating method as described in Example 1-(1). The transconjugant of P. putida carrying pSSA102R was selected on MB agar medium containing 50 μg/ml nalidixic acid and 10 μg/ml tetracycline (MNT agar medium) and subjected to a mini-resting cell reaction. […] The reaction mixture was assayed with TLC and 2KGA was identified as the product, while no 2KGA was observed by the same resting cell reaction with the host, nalidixic acid resistant P. putida [ATCC 21812].

[2] = Optimal pH, PMS-DCIP assay in buffers of various pH; format: biochemical
Protocol: The Enzymes A″ and B have a relatively wide pH range toward a lower pH, compared with the Enzymes A and A′.
The enzyme activity was assayed by the PMS-DCIP spectrophotometric assay using various pH buffers. The buffers were 50 mM Tris-malate-NaOH, pH 6.0, 6.5, 7.0, 7.5, 8.0 and 8.5; 50 mM glycine-NaOH, pH 9.0 and 9.5. The extinction coefficients of DCIP at pH 6.0, 6.5, 7.0, 7.5, 8.0, 8.5, 9.0 and 9.5 were taken as 10.8, 13.2, 14.5, 14.9, 15.0, 15.1, 15.1 and 15.1, respectively. […] The Enzymes A″ and B had relatively wide pH range toward lower pH, compared with the Enzymes A and A′.

[3] = pH stability, 3 hours at 25° C., residual activity by PMS-DCIP assay; format: physicochemical; conditions: relative to no incubation at pH 8.0
Protocol: Enzymes A, A′, A″ and B were incubated in buffers of various pH-values for 3 hours at 25° C. and the residual activities were assayed and expressed as relative values against that obtained by no incubation at pH 8.
Table 3 indicates the results of pH-stabilities of the enzymes. The enzyme (about 0.01 mg/ml) was incubated with 50 mM buffer containing 5% sucrose, 0.2 M NaCl, and 5 mM CaCl2 at 25° C. for 3 hours and assayed by PMS-DCIP spectrophotometric method. The buffers were Na-acetate, pH4 and 5, Tris-malate-NaOH, pH 6, 7 and 8, glycine-NaOH, pH 9 and 10. The values in the table are expressed as relative activity against that obtained by no incubation at pH 8.0.

[4] = Products of enzyme reactions with purified enzymes, identified by TLC and/or HPLC; format: biochemical
Protocol: Products formed from a substrate in the reaction with Enzyme A, Enzyme A′, Enzyme A″ or Enzyme B were analyzed by thin layer chromatography (TLC) and/or high performance liquid chromatography (HPLC) with authentic compounds. […] Similarly to the reactivity for L-sorbosone, D-glucosone can be converted to 2KD by all of above mentioned AADHs. A group enzymes can produce 2KD from D-fructose whose possible direct product is D-glucosone. […]
Enzyme reactions with purified Enzyme A or Enzyme B and various substrates were performed as described in Example 11.

Row | Molecule | Oxidation product of D-sorbitol [1] | Oxidation product of L-sorbose [1] | Oxidation product of L-sorbosone [1] | Relative activity (optimal pH) ([2]; assay pH 6.0, pH 8.0 = 100) [%] | Relative activity (optimal pH) ([2]; assay pH 6.5, pH 8.0 = 100) [%] | Relative activity (optimal pH) ([2]; assay pH 7.0, pH 8.0 = 100) [%] | Relative activity (optimal pH) ([2]; assay pH 7.5, pH 8.0 = 100) [%] | Relative activity (optimal pH) ([2]; assay pH 8.0) [%] | Relative activity (optimal pH) ([2]; assay pH 8.5, pH 8.0 = 100) [%] | Relative activity (optimal pH) ([2]; assay pH 9.0, pH 8.0 = 100) [%] | Relative activity (optimal pH) ([2]; assay pH 9.5, pH 8.0 = 100) [%] | Relative activity (pH stability) ([3]; incubated at pH 4.0, 3 hours) [%] | Relative activity (pH stability) ([3]; incubated at pH 5.0, 3 hours) [%] | Relative activity (pH stability) ([3]; incubated at pH 6.0, 3 hours) [%] | Relative activity (pH stability) ([3]; incubated at pH 7.0, 3 hours) [%] | Relative activity (pH stability) ([3]; incubated at pH 8.0, 3 hours) [%] | Relative activity (pH stability) ([3]; incubated at pH 9.0, 3 hours) [%] | Relative activity (pH stability) ([3]; incubated at pH 10.0, 3 hours) [%] | Relative activity (pH stability) ([3]; incubated at pH 11.0, 3 hours) [%] | Product ([4]; substrate D-Mannitol) | also measured
1 | Enzyme A: recombinant AADH of G. oxydans DSM No. 4025, amino acid sequence SEQ ID NO 5, plasmid p24D4/pSSA102R (protein, Gluconobacter oxydans; SIGNAL (1)..(23)) MKPTSLLWASAGALALLAAPAFAQVTPVTDELLANPPAGEWISYGQNQENYRHSPLTQITTENVGQLQLVWARGMQPGKVQVTPLIHDGVMYLANPGDVIQAIDAKTGDLIWEHRRQLPNIATLNSFGEPTRGMALYGTNVYFVSWDNHLVALDTATGQVTFDVDRGQGEDMVSNSSGPIVANGVIVAGSTCQYSPFGCFVSGHDSATGEELWRNYFIPRAGEEGDETWGNDYEARWMTGAWGQITYDPVTNLVHYGSTAVGPASETQRGTPGGTLYGTNTRFAVRPDTGEIVWRHQTLPRDNWDQECTFEMMVTNVDVQPSTEMEGLQSINPNAATGERRVLTGVPCKTGTMWQFDAETGEFLWARDTNYQNMIESIDENGIVTVNEDAILKELDVEYDVCPTFLGGRDWPSAALNPDSGIYFIPLNNVCYDMMAVDQEFTSMDVYNTSNVTKLPPGKDMIGRIDAIDISTGRTLWSVERAAANYSPVLSTGGGVLFNGGTDRYFRALSQETGETLWQTRLATVASGQAISYEVDGMQYVAIAGGGVSYGSGLNSALAGERVDSTAIGNAVYVFALPQ | mainly D-glucose | *1Oxidation product of L-sorbose by Enzymes A, A′, A″, and [A and B] was 2KGA. | *4Oxidation product of L-sorbosone by Enzymes A, A′, A″, B, and [A and B] was 2KGA. | 6.5 | 13.0 | 33.1 | 57.7 | 100.0 | 113.2 | 50.0 | 19.6 | 5.4 | 32.0 | 74.7 | 76.9 | 80.1 | 60.1 | 53.2 | 31.0 | D-Mannose | Product ([4]; substrate D-Sorbitol): D-glucose with L-gulose; Product ([4]; substrate L-Sorbose): L-sorbosone with 2KGA; Product ([4]; substrate L-Sorbosone): 2KGA
2 | Enzyme A″: recombinant AADH of G. oxydans DSM No. 4025, amino acid sequence SEQ ID NO 7, plasmid p26C3 (protein, Gluconobacter oxydans; SIGNAL (1)..(23)) MKLTTLLQSSAALLVLGTIPALAQTAITDEMLANPPAGEWINYGQNQENYRHSPLTQITADNVGQLQLVWARGMEAGKIQVTPLVHDGVMYLANPGDVIQAIDAATGDLIWEHRRQLPNIATLNSFGEPTRGMALYGTNVYFVSWDNHLVALDTSTGQVVFDVDRGQGTDMVSNSSGPIVANGVIVAGSTCQYSPFGCFVSGHDSATGEELWRNTFIPRAGEEGDETWGNDYEARWMTGVWGQITYDPVGGLVHYGTSAVGPAAEIQRGTVGGSMYGTNTRFAVRPETGEIVWRHQTLPRDNWDQECTFEMMVVNVDVQPSAEMEGLHAINPDAATGERRVVTGVPCKNGTMWQFDAETGEFLWARDTSYQNLIESVDPDGLVHVNEDLVVTELEVAYEICPTFLGGRDWPSAALNPDTGIYFIPLNNACSGMTAVDQEFSSLDVYNVSLDYKLSPGSENMGRIDAIDISTGRTLWSAERYASNYAPVLSTGGGVLFNGGTDRYFRALSQETGETLWQTRLATVASGQAISYEIDGVQYVAIGRGGTSYGSNHNRALTERIDSTAIGSAIYVFALPQQ | mainly D-glucose | *1Oxidation product of L-sorbose by Enzymes A, A′, A″, and [A and B] was 2KGA. | *4Oxidation product of L-sorbosone by Enzymes A, A′, A″, B, and [A and B] was 2KGA. | 35.0 | 57.3 | 74.8 | 90.0 | 100.0 | 85.6 | 46.5 | 23.9 | 6.2 | 77.9 | 105.8 | 100.9 | 99.0 | 100.9 | 104.0 | 79.2 | D-mannose | Product ([4]; substrate D-Fructose): 2-keto-D-gluconic acid; Product ([4]; substrate D-Sorbitol): D-glucose with L-gulose; Product ([4]; substrate L-Sorbose): L-sorbosone with 2KGA; Product ([4]; substrate L-Sorbosone): 2KGA
3 | Enzyme A′: recombinant AADH of G. oxydans DSM No. 4025, amino acid sequence SEQ ID NO 6, plasmid p1E2 (protein, Gluconobacter oxydans; SIGNAL (1)..(23)) MKTSSLLVASVAALASYSSFALAQVTPVTDELLANPPAGEWISYGQNQENYRHSPLTQITTENVGQLQLVWARGMQPGKVQVTPLIHDGVMYLANPGDVIQAIDAKTGDLIWEHRRQLPNIATLNSFGEPTRGMALYGTNVYFVSWDNHLVALDTATGQVTFDVDRGQGEDMVSNSSGPIVANGVIVAGSTCQYSPFGCFVSGHDSATGEELWRNYFIPRAGEEGDETWGNDYEARWMTGVWGQITYDPVGGLVHYGSSAVGPASETQRGTTGGTMYGTNTRFAVRPETGEIVWRHQTLPRDNWDQECTFEMMVANVDVQPAADMDGVRSINPNAATGERRVLTGVPCKTGTMWQFDAETGEFLWARDTSYENIIESIDENGIVTVDESKVLTELDTPYDVCPLLLGGRDWPSAALNPDTGIYFIPLNNTCMDIEAVDQEFSSLDVYNQSLTAKMAPGKELVGRIDAIDISTGRTLWTAEREASNYAPVLSTAGGVLFNGGTDRYFRALSQETGETLWQTRLATVASGQAVSYEIDGVQYIAIGGGGTTYGSFHNRPLAEPVDSTAIGNAMYVFALPQQ | mainly D-glucose | *1Oxidation product of L-sorbose by Enzymes A, A′, A″, and [A and B] was 2KGA. | *4Oxidation product of L-sorbosone by Enzymes A, A′, A″, B, and [A and B] was 2KGA. | 2.1 | 9.3 | 22.5 | 46.8 | 100.0 | 142.7 | 2.1 | 1.8 | 0.0 | 10.0 | 82.7 | 96.9 | 100.0 | 97.3 | 85.4 | 61.3 | D-mannose | Product ([4]; substrate D-Fructose): 2-keto-D-gluconic acid; Product ([4]; substrate D-Sorbitol): D-glucose with L-gulose; Product ([4]; substrate L-Sorbose): L-sorbosone with 2KGA; Product ([4]; substrate L-Sorbosone): 2KGA
